Experiments:
[1] = Transmission electron microscopy (TEM); format: physicochemical; conditions: for TEM: 2.5 mg/ml peptide stocks; for Appearance on TEM images: magnification 10K
Description: Transmission Electron Microscopy (TEM)
TEM images were collected using a Jeol 1200 EX transmission electron microscope (Jeol Ltd., Tokyo, Japan) at an excitation voltage of 80 kV. For each sample, the formvar and carbon-coated side of a 100-mesh copper or nickel grid was positioned on a 5 μl drop of protein solution for 5 minutes. Afterwards, it was positioned on a 100 μl drop of PBS for 2 minutes, followed by three 2-minute incubations with a 100 μl drop of distilled water. The grids were then stained for 2 minutes with a 100 μl drop of 2% (m/v) methylcellulose with 0.4% uranyl acetate pH 4. Excess fluid was removed by streaking the side of the grids over filter paper, and the grids were subsequently dried under a lamp. Samples were analysed at a magnification of 10K.

human BiP [2] = target: T1, human BiP (Homo sapiens, UniProt P11021); assay: ELISA: binding of BiP-FLAG-His to immobilized (misfolded) protein ligands; conditions: ligands coated at 5 μg/ml; 6BB peptides and oxLDL 50 μg/ml
T1 construct: The human BiP gene except the signal peptide encoding region was obtained from Geneart (Germany); linker […]; made in house; host or cells: HEK 293E cells, transient transfection, PABC674 vector; secreted into the medium
T1 sequence (P11021 19-654): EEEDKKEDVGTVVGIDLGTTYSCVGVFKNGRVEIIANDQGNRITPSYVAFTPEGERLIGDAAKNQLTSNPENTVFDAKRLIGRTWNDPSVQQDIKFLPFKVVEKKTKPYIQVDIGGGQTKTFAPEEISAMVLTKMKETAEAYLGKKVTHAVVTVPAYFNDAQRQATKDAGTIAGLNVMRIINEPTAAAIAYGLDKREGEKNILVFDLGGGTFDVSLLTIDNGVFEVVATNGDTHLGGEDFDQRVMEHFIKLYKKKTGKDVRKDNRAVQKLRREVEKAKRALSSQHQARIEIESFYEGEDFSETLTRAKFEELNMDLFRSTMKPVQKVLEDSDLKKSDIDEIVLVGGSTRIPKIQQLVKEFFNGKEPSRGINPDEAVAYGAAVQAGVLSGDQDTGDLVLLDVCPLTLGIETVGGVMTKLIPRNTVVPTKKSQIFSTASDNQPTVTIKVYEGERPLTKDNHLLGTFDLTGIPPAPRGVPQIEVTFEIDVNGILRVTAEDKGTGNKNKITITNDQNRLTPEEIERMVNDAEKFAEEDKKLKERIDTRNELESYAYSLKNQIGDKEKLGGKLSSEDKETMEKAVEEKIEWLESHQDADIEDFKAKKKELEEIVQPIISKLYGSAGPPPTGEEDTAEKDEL
Method in brief: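 Ligands were coated at 5 μg/ml (50 μg/ml for 6BB# peptides and oxLDL) in 50 mM NaHCO3 pH 9.6, blocked, then incubated in triplicate with BiP-FLAG-His dilution series for 1 h at room temperature. Bound BiP was detected with peroxidase anti-FLAG M2 and TMB, stopped after 5 min and read at 450 nm. Buffer-only and chaperone-omitted background signals were subtracted.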

human BiP [3] = target: T1, human BiP; assay: ELISA: inhibition of BiP binding to crossbeta structure with tPA; conditions: threefold diluted supernatant; 10 mM ε-amino caproic acid; no competitor
From the text: The threefold diluted cell supernatants were applied to the ELISA plate in duplicates and BiP binding was subsequently measured as described above. Coat efficiency was checked with specific anti-AGE antibody, anti-albumin antibody and anti-Hb antibody.

| Substance | TEM [1] | Binding of concentration series of BiP to coated ligand (human BiP [2]) | Appearance on TEM images [1] | Binding of BiP to coated ligand (human BiP [3]) |
| --- | --- | --- | --- | --- |
| AGEYYAAL [6BB7] | Very few small | did not bind | – | – |
| BSA-AGE | – | has been established | non-fibrillar amorphous aggregates | binds |
| GSNKGAIIGLM [6BB6, Human Aβ (25-35)] | Thin aggregated | has been established | – | – |
| Hb: non-modified human haemoglobin control | – | did not bind | – | some binding |
| HbAGE: human haemoglobin glycated with glucose-6-phosphate for 75 weeks | – | has been established | non-fibrillar amorphous aggregates | – |
| KLVFFAE [6BB12, Human Aβ16-22] | Large dense clusters | no BiP binding was observed | – | – |
| native BSA: non-modified bovine serum albumin control | – | did not bind | – | hardly |
